The data set has as its target Cas9wt (SpCas9) (Streptococcus pyogenes, UniProt Q99ZW2 1-1368). As to the kind of experiment: single-molecule magnetic tweezers.

Chain of Cas9wt (SpCas9) (Q99ZW2 whole entry): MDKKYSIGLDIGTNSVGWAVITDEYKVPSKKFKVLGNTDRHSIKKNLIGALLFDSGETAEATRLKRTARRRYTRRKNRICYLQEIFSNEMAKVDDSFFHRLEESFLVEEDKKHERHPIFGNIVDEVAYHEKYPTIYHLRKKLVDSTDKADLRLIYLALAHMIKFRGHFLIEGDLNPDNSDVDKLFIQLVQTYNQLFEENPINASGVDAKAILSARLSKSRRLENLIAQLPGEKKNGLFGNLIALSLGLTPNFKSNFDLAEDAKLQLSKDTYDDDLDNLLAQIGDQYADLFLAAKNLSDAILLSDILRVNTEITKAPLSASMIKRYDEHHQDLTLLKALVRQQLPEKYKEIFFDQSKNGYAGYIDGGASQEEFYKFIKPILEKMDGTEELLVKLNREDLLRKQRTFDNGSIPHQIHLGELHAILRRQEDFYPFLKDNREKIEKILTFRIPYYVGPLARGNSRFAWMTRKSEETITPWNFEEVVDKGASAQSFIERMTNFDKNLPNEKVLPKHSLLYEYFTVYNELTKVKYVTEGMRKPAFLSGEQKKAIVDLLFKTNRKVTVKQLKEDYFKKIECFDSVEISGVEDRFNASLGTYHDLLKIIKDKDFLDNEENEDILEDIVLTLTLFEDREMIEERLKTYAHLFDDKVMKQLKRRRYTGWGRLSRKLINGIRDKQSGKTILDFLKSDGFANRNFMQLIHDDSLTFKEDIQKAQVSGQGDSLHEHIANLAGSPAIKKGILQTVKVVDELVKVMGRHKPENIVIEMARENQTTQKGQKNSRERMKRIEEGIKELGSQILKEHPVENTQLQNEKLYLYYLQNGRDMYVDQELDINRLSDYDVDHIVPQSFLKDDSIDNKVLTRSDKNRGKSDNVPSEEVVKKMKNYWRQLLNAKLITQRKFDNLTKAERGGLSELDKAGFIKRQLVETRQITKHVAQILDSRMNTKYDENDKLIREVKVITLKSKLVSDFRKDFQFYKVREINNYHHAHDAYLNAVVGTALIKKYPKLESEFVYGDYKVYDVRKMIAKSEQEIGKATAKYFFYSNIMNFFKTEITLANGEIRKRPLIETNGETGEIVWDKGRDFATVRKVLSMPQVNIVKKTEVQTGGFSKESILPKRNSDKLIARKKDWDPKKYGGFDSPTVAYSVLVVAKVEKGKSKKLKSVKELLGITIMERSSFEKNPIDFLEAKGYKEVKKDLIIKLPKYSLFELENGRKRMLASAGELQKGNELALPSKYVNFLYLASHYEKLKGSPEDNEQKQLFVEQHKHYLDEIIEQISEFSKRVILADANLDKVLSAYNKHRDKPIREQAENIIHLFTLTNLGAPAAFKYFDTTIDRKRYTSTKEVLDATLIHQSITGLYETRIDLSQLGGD

B1: sgRNA MT + 2.7 kb DNA with FM protospacer (mixed)
RNA: GAGCGAUACACAUGAGACGCGUUUUAGAGCUAGAAAUAGCAAGUUAAAAUAAGGCUAGUCCGUUAUCAACUUGAAAAAGUGGCACCGAGUCGGUGCUUUUU
Regarding B1, the binding result is “binds”.

These data come from paper PMC8643700.
